# Test results from patent publication US20230295310A1 (ABCELLERA BIOLOGICS, published 2023).
# B1: mAb 185 (antibody, V domains shown)
# VH: QVQLVQSGSEVKKPGASVRVSCKASGYIFTGYHIHWVRQAPGQGLEWMGWINPKSGRTSYAQNFQARVTMTRDTSINTIHMELSRLRSDDTAIYYCMRVGEQLLFDFWGQGTLVTVSS
# VL: not shown
# notes: VH/VL only
# B2: mAb 274 (antibody, V domains shown)
# VH: QVQLVQSGAEVKKPGASVRVSCKASGYTFTGYYMHWVRQAPGQGLEWMGWIYPNSGRTNYAQKFQGRVTMTRDTSISTAYMELTRLISDDTAVYYCARLWDLYFDYWGQGTLVTVSS
# VL: DIQLTQSPSFLSASVGDRVTITCRASQGISSYLAWYQQKPGKAPKLLIYAASTLQSGVPSRFSGSGSGTEFTLTISSLQPEDFATYYCQQLNSYPWTFGQGTKVEIK
# notes: VH/VL only
# B3: mAb 281 (antibody, V domains shown)
# VH: QVQLVQSGAEVKKPGASVRVSCKASGYTFTGYYMHWVRQAPGQGLEWMGWIYPNSGRTNYAQKFQGRVTMTRDTSISTAYMELTRLISDDTAVYYCARLWDLYFDYWGQGTLVTVSS
# VL: DIVMTQSPLSLPVTPGEPASISCRSSQSLLHYNGNNYLDWYLQKPGQSPHLLIYLGSNRASGVPDRFSGSGSGTDFTLKIIRVEAEDVGIYYCMQGLQSPYTFGQGTKLEIK
# notes: VH/VL only
# B4: mAb 277 (antibody, V domains shown)
# VH: QVQLVQSGAAMKKPGASVKVSCKASGSTFTGYYLHWVRQAPGQGLEWMGWIYLNSGRTKYAQKFQGRVTMTRDTSINTAHMELSRLTFDDTAVYYCVRVLELIFDYWGQGTLVTVSS
# VL: DIQLTQSPSFLSASVGDRVTITCRASQGISSYLAWYQQKPGKAPKLLIYAASTLQSGVPSRFSGSGSGTEFTLTISSLQPEDFATYYCQQLNSYPWTFGQGTKVEIK
# notes: VH/VL only
# B5: mAb 280 (antibody, V domains shown)
# VH: QVQLVQSGAEVKKPGASVRVSCKASGYTFTGYYMHWVRQAPGQGLEWMGWIYPNSGRTNYAQKFQGRVTMTRDTSISTAYMELTRLISDDTAVYYCARLWDLYFDYWGQGTLVTVSS
# VL: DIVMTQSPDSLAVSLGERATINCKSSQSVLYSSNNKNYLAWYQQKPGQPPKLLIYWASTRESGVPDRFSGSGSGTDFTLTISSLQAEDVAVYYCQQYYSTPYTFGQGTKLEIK
# notes: VH/VL only
# B6: mAb 292 (antibody, V domains shown)
# VH: EVQLLESGGGLVQPGGSRRLSCAASGFTFSTYAMSWVRQAPGKGLEWVSVINGRGDDTNYADSVKGRFTISRDNSKNILFLQMNSLRAEDTAVYYCAKKYSYYYYYMDVWGKGTTVTVSS
# VL: SYELTQPLSVSVALGQTARITCGGNNIGSKDVHWYQQKPGQAPVLVIYRDSNRPSGIPERFSGSNSGNTATLTISRAQAGDEADYYCQVWDSRTAVFGGGTQLTAL
# notes: VH and VL only
# B7: mAb 289 (antibody, V domains shown)
# VH: EVQLLESGGGLVQPGGSRRLSCAASGFTFSSFAMSWVRQAPGKGLEWVSVISSRGDNTNYADSVKGRFTISRDNSKNTLYLQMNSLRAEDTAVYYCAKKYSYYYYYMDVWGKGTTVTVSS
# VL: SYELTQPLSVSVALGQTARITCGGNNIGSKNVHWHQQKPGQAPVLVIYRESNRPSGIPERFSGSNSGNTATLTSSRAQAGDEADYYCQVWDSSTAVFGGGTQLTAL
# notes: VH/VL only
# B8: mAb 184 (antibody, V domains shown)
# VH: QVQLVESGGGVVQPGRSLRLSCAASGFTFSDYGMHWVRQAPGKGLEWVSVIWSDGLNKYYKDSVKGRFTISRDNSKNTLYLQMNSLRAADTAVYYCARLYSGSHYHYFMDVWGKGTSVTVSS
# VL: DILLTQSPSFLSASVGDRVTITCRASQDISSSLAWYQQKPKKAPDLLIYTASTLQSGVPSRFSGRGSGTEFTLTISNLQPEDFATYYCQQLKNYPITFGQGTRLEIK
# notes: VH/VL only
# B9: mAb 268 (antibody, V domains shown)
# VH: QVQLVQSGSEVKKPGASVKVSCKASGYTFTGYYIHWVRQAPGQGLEWMGWINPNSGRTNYAQNFQGRVTMTRDTSITTAHMELTRLTSDDTAVYYCARLELLVFDYWGQGTLVTVSS
# VL: DIQMTQSPSSLSASVGDRVTITCRASQTIYNYLNWYQQKPGKAPQVLIYAASNLQSGVPSIFSGSGSGTDFTLTITNLQPEDFATYYCQQTYSIPFTFGGGTKVEIK
# notes: VH/VL only
# B10: mAb 279 (antibody, V domains shown)
# VH: QVQLVQSGAEVKKPGASVKVSCKASGYTFTGYYMHWVRQAPGQGLEWMGWIYPNSGRTNYAQKFQGRVTMTRDTSISTAYMELTRLISDDTAVYYCARLWDLYFDYWGQGTLVTVSS
# VL: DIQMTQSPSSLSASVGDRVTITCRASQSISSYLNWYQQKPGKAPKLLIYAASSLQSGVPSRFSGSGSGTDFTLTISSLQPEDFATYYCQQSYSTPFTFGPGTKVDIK
# notes: VH/VL only
# B11: mAb 269 (antibody, V domains shown)
# VH: QVQLVQSGSEVKKPGASVKVSCKASGYTFTGYYIHWVRQAPGQGLEWMGWINPNSGRTNYAQNFQGRVTMTRDTSITTAHMELTRLTSDDTAVYYCARLELLVFDYWGQGTLVTVSS
# VL: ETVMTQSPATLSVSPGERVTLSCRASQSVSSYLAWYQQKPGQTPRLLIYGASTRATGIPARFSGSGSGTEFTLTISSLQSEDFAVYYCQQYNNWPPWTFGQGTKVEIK
# notes: VH/VL only
# B12: mAb 282 (antibody, V domains shown)
# VH: QVQLVQSETEVKKPGASVRVSCKASGYTFTGYYVHWVRQAPGQGLEWMGWINPKSGRTSYSQKFQDRVTMTRDTSISTVYMELSRLRSDDTAVYYCARILELIFDYWGQGTLVTVSS
# VL: EIVLTQSPDFQSVTPKEKVTITCRASQSIGSSLHWYQQKPDQSPKLLIKYASQSFSGVPSRFSGSGSGTDFTLTINSLEAEDAATYYCHQSSSLPTFGPGTKVDIK
# notes: VH/VL only
# B13: mAb 278 (antibody, V domains shown)
# VH: QVQLVQSGAAMKKPGASVKVSCKASGSTFTGYYLHWVRQAPGQGLEWMGWIYLNSGRTKYAQKFQGRVTMTRDTSISTAHMELSRLTFDDTAVYYCARVLELIFDYWGQGTLVTVSS
# VL: not shown
# B14: mAb 253 (antibody, V domains shown)
# VH: QVTLKESGPVLVKPTETLTLTCTVSGFSLSNARMGVSWIRQPPGKALEWLTLIFSIDEKSYSTSLKSRLTISQDTSKSQVVLTVTNMDPVDTVTYFCERIETGPYYYYYYMDVWGKGTTVTVSS
# VL: not shown
# notes: VH/VL only
# B15: mAb 254 (antibody, V domains shown)
# VH: QVTLKESGPVLVKPTETLTLTCTVSGFSLSNSRMGVSWLRQPPGKALEWLIFIFSIDEKSYSTSLKSRLTISQDTSKSQVVLTMTNMDPVDTVTYFCERIETGPYYYYYYMDVWGKGTTVTVSS
# VL: not shown
# notes: VH/VL only
# B16: mAb 187 (antibody, V domains shown)
# VH: EVQLLESGGGLVQPGGSLRLSCAASGFTFSSYAMNWVRQAPGKGLEWVSAISSSGGRTYYADSVKGRFTISRDNSKNTLYLQMNSLRAEDTAVYYCAKDSTSHPYMDVWGKGTTVTVSS
# VL: AIQMTQSPSSLSASVGDRVTITCRASQGIRNDLGWYQQQPGKAPKLLIYDASSLQSGVPSRFSGSGSGTVFTLTISSLQPEDFATYFCLQDYNYPFTFGPGTKVDIK
# notes: VH/VL only
# B17: mAb 275 (antibody, V domains shown)
# VH: QVQLVQSGSELKKPGASVKVSCKASGYTFTKYAMNWVRQAPGQGLEWMGWINTNTGNPTYAQGFTGRFVFSLDASVTTAYLQISSLKAEDTAVYYCAREGHYDFWGGFYYFDYWGQGTLVTVSS
# VL: EIMLTQSPATLSLSPGERGTLSCRASQSVSSYLAWYQQKPGQAPRLVIYDVSNRATGIPARFSGSGSGTDFILTIGSLEPEDFAVYYCQQRSNWPLTFGGGTKVEIK
# notes: VH/VL only
# Legend:
# [1] = target: T1, cynomolgus monkey CD3 expressed on cyno primary T cells (cynomolgus monkey, UniProt Q95LI5 22-198; Q95LI8 22-171; Q95LI7 23-181); experiment: flow cytometry, cyno primary T cells
# T1 construct: whole, on cells; CD3 complex on purified cynomolgus monkey CD3 pan T cells; also called cyno CD3
# Method in brief: (§1)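 Binding readout: MFI divided by isotype-control MFI (fold over isotype), positive at ≥10. Cells were stained with 25 nM antibody, 30 min, 4° C, in PBS/2% FBS before flow cytometry.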
# [2] = target: T2, human CD3 expressed on cells (Jurkat cells; human primary T cells) (human, UniProt P07766 23-207; P04234 22-171; P09693 23-182); experiment: flow cytometry, Jurkat cells
# T2 construct: whole, on cells
# Method: (§2) Purified antibodies were confirmed to bind CD3 expressed on cells using the CytoFLEX S or LX flow cytometers (Beckman Coulter). Antibodies were diluted to 25 nM in FACS buffer (PBS+2% FBS) and were incubated with CD3-expressing cells for 30 minutes at 4° C. […] The median fluorescence intensity of the binding signal for each antibody was normalized to the isotype control to obtain a fold over isotype value. An antibody with a fold over isotype (FOI) of ≥10 was considered to be positive for binding.
# human CD3 [3] = target: T3, human CD3 (human, UniProt P07766 23-207; P04234 22-171; P09693 23-182); experiment: flow cytometry, Jurkat cells, 25 nM antibody
# T3 construct: whole, on cells; also called CD3 on Jurkat cells; CD3 on human primary T cells
# Method: as §2
# cynomolgus monkey CD3 = target: T4, cynomolgus monkey CD3 (cynomolgus monkey, UniProt Q95LI5 22-198; Q95LI8 22-171; Q95LI7 23-181); experiment: flow cytometry, cyno primary T cells
# T4 construct: whole, on cells; CD3 on purified cynomolgus monkey CD3 pan T cells; also called cyno CD3; CD3 on cyno primary T cells
# Method in brief: as §1
# human CD3 [4] = target: T3, human CD3; experiment: flow cytometry, human primary T cells, 25 nM antibody
# Method: as §2
# T1 sequence (Q95LI5 22-198, chain 1 of 3): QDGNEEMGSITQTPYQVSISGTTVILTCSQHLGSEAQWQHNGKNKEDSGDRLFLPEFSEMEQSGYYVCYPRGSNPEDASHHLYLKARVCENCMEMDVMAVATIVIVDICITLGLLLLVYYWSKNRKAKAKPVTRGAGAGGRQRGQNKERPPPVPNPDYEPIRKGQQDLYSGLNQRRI
# T1 sequence (Q95LI8 22-171, chain 2 of 3): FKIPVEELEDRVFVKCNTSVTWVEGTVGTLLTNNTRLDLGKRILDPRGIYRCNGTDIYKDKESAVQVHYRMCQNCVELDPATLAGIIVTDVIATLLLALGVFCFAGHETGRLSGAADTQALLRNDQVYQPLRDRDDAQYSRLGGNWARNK
# T1 sequence (Q95LI7 23-181, chain 3 of 3): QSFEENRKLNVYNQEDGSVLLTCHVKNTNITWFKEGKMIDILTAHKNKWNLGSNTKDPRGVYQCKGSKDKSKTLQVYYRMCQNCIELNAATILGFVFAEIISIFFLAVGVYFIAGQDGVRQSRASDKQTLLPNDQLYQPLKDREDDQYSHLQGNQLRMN
# T2 sequence (P07766 23-207, chain 1 of 3): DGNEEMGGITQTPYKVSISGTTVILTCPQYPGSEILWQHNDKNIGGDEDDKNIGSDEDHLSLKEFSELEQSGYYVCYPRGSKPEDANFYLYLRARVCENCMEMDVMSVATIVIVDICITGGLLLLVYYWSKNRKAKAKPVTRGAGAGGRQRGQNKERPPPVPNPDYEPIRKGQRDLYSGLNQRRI
# T2 sequence (P04234 22-171, chain 2 of 3): as the sequence (Q95LI8 22-171, chain 2 of 3) above, with V5I, K15N, V20I, T32S, N33D, N34I, A64T, N74S, L83V, R141H counted along it
# T2 sequence (P09693 23-182, chain 3 of 3): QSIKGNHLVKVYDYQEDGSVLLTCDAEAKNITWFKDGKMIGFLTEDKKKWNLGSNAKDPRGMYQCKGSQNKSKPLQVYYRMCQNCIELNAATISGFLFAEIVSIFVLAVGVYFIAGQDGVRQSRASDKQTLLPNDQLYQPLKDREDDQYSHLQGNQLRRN
# T3 sequence (P07766 23-207, chain 1 of 3): as the sequence (P07766 23-207, chain 1 of 3) above
# T3 sequence (P04234 22-171, chain 2 of 3): as the sequence (Q95LI8 22-171, chain 2 of 3) above, with V5I, K15N, V20I, T32S, N33D, N34I, A64T, N74S, L83V, R141H counted along it
# T3 sequence (P09693 23-182, chain 3 of 3): as the sequence (P09693 23-182, chain 3 of 3) above
# T4 sequence (Q95LI5 22-198, chain 1 of 3): as the sequence (Q95LI5 22-198, chain 1 of 3) above
# T4 sequence (Q95LI8 22-171, chain 2 of 3): as the sequence (Q95LI8 22-171, chain 2 of 3) above
# T4 sequence (Q95LI7 23-181, chain 3 of 3): as the sequence (Q95LI7 23-181, chain 3 of 3) above
Binder,binding result [1],binding result [2],Jurkat Cell Binding (FOI) (human CD3 [3]),binding result (cynomolgus monkey CD3),Human primary T Cell Binding (FOI) (human CD3 [4])
B1,no binding (tested: FOI <10 (FOI >=10 = positive); 25 nM),no binding (tested: FOI <10 (FOI >=10 = positive); 25 nM),,,
B2,no binding (tested: FOI <10 (FOI >=10 = positive); 25 nM),no binding (tested: FOI <10 (FOI >=10 = positive); 25 nM),,,
B3,no binding (tested: FOI <10 (FOI >=10 = positive); 25 nM),no binding (tested: FOI <10 (FOI >=10 = positive); 25 nM),,,
B4,no binding (tested: FOI <10 (FOI >=10 = positive); 25 nM),no binding (tested: FOI <10 (FOI >=10 = positive); 25 nM),,,
B5,no binding (tested: FOI <10 (FOI >=10 = positive); 25 nM),no binding (tested: FOI <10 (FOI >=10 = positive); 25 nM),,,
B6,,,227,no binding (tested: FOI ≥10 = positive; 25 nM),255
B7,no binding (tested: FOI <10 (FOI >=10 = positive); 25 nM),no binding (tested: FOI <10 (FOI >=10 = positive); 25 nM),,,
B8,no binding (tested: FOI <10 (FOI >=10 = positive); 25 nM),no binding (tested: FOI <10 (FOI >=10 = positive); 25 nM),,,
B9,no binding (tested: FOI <10 (FOI >=10 = positive); 25 nM),no binding (tested: FOI <10 (FOI >=10 = positive); 25 nM),,,
B10,no binding (tested: FOI <10 (FOI >=10 = positive); 25 nM),no binding (tested: FOI <10 (FOI >=10 = positive); 25 nM),,,
B11,no binding (tested: FOI <10 (FOI >=10 = positive); 25 nM),no binding (tested: FOI <10 (FOI >=10 = positive); 25 nM),,,
B12,no binding (tested: FOI <10 (FOI >=10 = positive); 25 nM),no binding (tested: FOI <10 (FOI >=10 = positive); 25 nM),,,
B13,no binding (tested: FOI <10 (FOI >=10 = positive); 25 nM),no binding (tested: FOI <10 (FOI >=10 = positive); 25 nM),,,
B14,no binding (tested: FOI <10 (FOI >=10 = positive); 25 nM),no binding (tested: FOI <10 (FOI >=10 = positive); 25 nM),,,
B15,no binding (tested: FOI <10 (FOI >=10 = positive); 25 nM),no binding (tested: FOI <10 (FOI >=10 = positive); 25 nM),,,
B16,no binding (tested: FOI <10 (FOI >=10 = positive); 25 nM),no binding (tested: FOI <10 (FOI >=10 = positive); 25 nM),,,
B17,no binding (tested: FOI <10 (FOI >=10 = positive); 25 nM),no binding (tested: FOI <10 (FOI >=10 = positive); 25 nM),,,
